This sample holds only a part of the variants without activity.
B1: TPR 5TU (parent)
chain: GGAUCUUCUCGAUCUAACAAAAAAGACAAAUCUGCCACAAAGCUUGAGAGCAUCUUCGGAUGCAGAGGCGGCAGCCUUCGGUGGCGCGAUAGCGCCAACGUUCUCAACUAUGACACGCAAAACGCGUGCUCCGUUGAAUGGAGUUUAUCAUG

Variants of: B1
Assay: polymerase ribozyme fitness, log enrichment relative to wild type (log ratio); higher = more active; in vitro selection for triplet polymerase activity
In short: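 Genotype fitness is the logarithm of its enrichment divided by wild-type enrichment, using inverse-variance-weighted averages of replicates. That logarithm is base 2. Enrichment was measured by Illumina sequencing of input and output libraries from one triplicate in vitro selection round, with frozen incubation at −7 °C, on PCR-built, transcribed mutant libraries of each subunit of a heterodimeric triplet polymerase ribozyme, retaining genotypes with ≥10 input reads and ≥1 read per output.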

| Variant | polymerase ribozyme fitness (log ratio) |
| --- | --- |
| A16U A47U U55A C87U | -2.97 |
| U15G G84A | -1.57 |
| A16G A17G A19C G50A | 0.928 |
| U15G A22C A60G A73U C76G C103A A122U U151A | ≤ -4.2 |
| U15G C51A C93A G124U U145A | -3.28 |
| U15G C27A U146A | ≤ -4.2 |
| A16C U45G C114U | -3.74 |
| A16G C35G U53A C57U G84U C105G A150U | ≤ -4.2 |
| A16G G83U A107U A142C | ≤ -4.2 |
| A16G A26U C85A C105G C114U G141C U151C | ≤ -4.2 |
| A16C U101G U127A | -3.71 |
| A16C C32U | -2.43 |
| A16G A19C G80C C87A A150U | ≤ -4.2 |
| A16G A37U U134G | -3.68 |
| U15G G34U A107C A115U C118A U134C U135G A150G | ≤ -4.2 |
| A16C C18G A22G C27U A52G U61A A73G C85A U127C U139C | ≤ -4.2 |
| A16U A98U A122G U146G | -3.26 |
| U15G C51U G86U A89U C114U | ≤ -4.2 |
| A16G A20C A22C G25A A37U A40C C75U C96U U130G A138U U145G | ≤ -4.2 |
| U15G A28G A29U C36G A40G G94U U102C A122G U139G | ≤ -4.2 |
| U15G A110G | -3.59 |
| A16G G81A G83A C93U G128C U134G | ≤ -4.2 |
| A16G G46U | -1.19 |
| A16C C51A C54G C57A C96A G117U U135G | ≤ -4.2 |

| Variant | polymerase ribozyme fitness (log ratio) |
| --- | --- |
| A16G U55A G74A U82G C85G | ≤ -4.2 |
| A16C C18U C38U A39C A49U G67A U134G | ≤ -4.2 |
| A16G C38A U56G C96U C103U C149G | ≤ -4.2 |
| A16U A22C | -2.41 |
| A16C A19U A73G C87A U148G G152U | ≤ -4.2 |
| U15G G46U G65A G68C C85U C116G | ≤ -4.2 |
| A16G C27U | -2 |
| A16G G94A U104A | -0.709 |
| U15G G50C C69U C76A G84U | ≤ -4.2 |
| A16C A37C A40C C63U A64U C69G C76U G141C | ≤ -4.2 |
| A16G C57A | -0.592 |
| A16G G94U C95A U134G | -3.52 |
| A16G U78A C93G | ≤ -4.2 |
| U15G G94C C96U U111A G152A | ≤ -4.2 |
| U15G A37C A47C C95U | -1.64 |
| A16U A17U G48U U104G G124A C131G | -4.15 |
| A16U A52G U104G U134G | ≤ -4.2 |
| U15G G88A | -4.08 |
| U15G G50U U61A C93G C105U A107G | ≤ -4.2 |
| A16U A19U A39U U61A A113G G128A G141C | ≤ -4.2 |
| A16G U53G G84U C96G | -3.88 |
| U15G C103A | -1.91 |
| A16C G141A | -0.406 |
| A16C A52U C85G A122G G124C | ≤ -4.2 |

| Variant | polymerase ribozyme fitness (log ratio) |
| --- | --- |
| A16G C27U A28G C43U U53A C57A U82G C93U G143C | ≤ -4.2 |
| A16G A17U A41U C93U C125U U134G | -4.05 |
| A16G C43A C57G G59U G70U G88U C99U A107G | ≤ -4.2 |
| U15G A26G A52U U53A G65A G80U C87G C96G A97G C108G | ≤ -4.2 |
| A16G C93G | -4.02 |
| A16G G94A G143C | -3.22 |
| A16C C76G C85U G133C C149A | ≤ -4.2 |
| A16C A150U | -0.0438 |
| U15G C85U C87A | ≤ -4.2 |
| A16C C51U G84U U135A | -3.41 |
| A16C C51A A89U G94A A98U | -3.95 |
| A16G G50A A142C | -3.93 |
| A16C G25C | -2.46 |
| U15G A49C G50A U78A A91C C93A G126U | ≤ -4.2 |
| A16G C35U | -1.36 |
| U15G C51U A98U A115G G136A | -2.29 |
| A16U A29U U77G C85G C116U C125A U134C | ≤ -4.2 |
| A16G U134A | -3.15 |
| A16G U134G | -3.44 |
| A16G A37C G46A G50C C87A G92A A138C A147U | ≤ -4.2 |
| A16G G48A A122U C149U | -3.58 |
| A16C U82G | -1.06 |
| A16G A20G A120C | -1.84 |
| A16U A39U G84A G92U C103U C149G U151C | ≤ -4.2 |

| Variant | polymerase ribozyme fitness (log ratio) |
| --- | --- |
| A16G G83U U139G | -1.17 |
| A16G A23U C72A C87A C93U G126A | ≤ -4.2 |
| A16G G80C G81A A97G U102C G136C C149U | ≤ -4.2 |
| U15G C72U C87A U134A A150C U151G | ≤ -4.2 |
| A16U A39G A89C C95U G152C | ≤ -4.2 |
| U15G A39G U53A | -4.01 |
| A16C G92C | -1.11 |
| A16U A41G C51U G74C C95U C103U C118U G133A | ≤ -4.2 |
| A16G A20U C32A U45A A47C G83C C93G G140A | ≤ -4.2 |
| A16C A20C A41C C85G C116U | -3.81 |
| A16C A21C C57A G88U C103G U130G | ≤ -4.2 |
| A16C U55A A106G | -1.85 |
| A16G G126A G143A | -3.34 |
| A16G A24U G46U C85G A106C U109A C114U C118G A120G | ≤ -4.2 |
| U15G G71U | -2.28 |
| A16C U101G | -0.303 |
| A16U A37U C76G U82G A89G A91G G143U | ≤ -4.2 |
| A16C A22U A89U C93U | -3.06 |
| A16C G62C | -2.47 |
| U15G C27U G83A A121C | -2.52 |
| A16G A17C U31A U55G C57G A115C U135A | -3.86 |
| A16C A110G | -3.67 |
| A16C A24G U56C U77C G86A U104G U139A A142G | ≤ -4.2 |
| A16C C85U C95A C132U | -3.71 |

| Variant | polymerase ribozyme fitness (log ratio) |
| --- | --- |
| A16C A17U A20U C38A C57U A60C G84A C116G | ≤ -4.2 |
| U15G G25U | -3.22 |
| A16C U31C G50A G86A | -3.16 |
| A16C U45G A106G | -0.613 |
| A16C G84U A120G | -2.78 |
| A16C C32U A122G | -3.01 |
| A16U A30C U44A G88A C105U U109A | ≤ -4.2 |
| U15G U56G U77C C87G G94A U104G A106U C123U | ≤ -4.2 |
| A16C G94A C116G | -0.496 |
| U15G C116U | 0.239 |
| A16C U55A | -1.28 |
| A16G U45A C72U C93G U151A | ≤ -4.2 |
| A16G A41C U55G A142C | -3.52 |
| U15G C18G A40U | -1.5 |
| A16G A21C C27G G59A G67C U145G | ≤ -4.2 |
| A16C A24G A73C A121G | ≤ -4.2 |
| A16C A17G C96G C118U | -1.74 |
| A16U A19G C57A | -2.39 |
| A16C A91C U101C | ≤ -4.2 |
| A16U A39C A49C C96U C125U | ≤ -4.2 |
| U15G C96U | -1.19 |
| U15G C96A | -0.302 |
| A16C A20G A24U A40G G48U G58U U77C C85U | ≤ -4.2 |
| A16G G25U A150G | -3.86 |

| Variant | polymerase ribozyme fitness (log ratio) |
| --- | --- |
| A16U A19U A40G | ≤ -4.2 |
| A16G A26U U31C U82A A106U C131A U139G G141C | ≤ -4.2 |
| A16C G126A | -0.0283 |
| A16U A19U C103G | -4.18 |
| A16U A150G | -2.95 |
| A16C C57U A60G G86U C125U U134G | -4.12 |
| A16C A73G G92A | -3.3 |
| A16G A23G A37U G86A U135A | ≤ -4.2 |
| A16G A91U | ≤ -4.2 |
| U15G C93U | -2.61 |
| A16U C18A A40G G74A G80C G83U G86A A97U | ≤ -4.2 |
| A16C A21G C54A C95A | -3.07 |
| A16G A73U G94U | -2.22 |
| A16G C27G U44A C79G | ≤ -4.2 |
| A16U A19U A26C A37C G74C A89C G94A C108U A113G G136A | ≤ -4.2 |
| A16G C57A G62A C96U | -1.89 |
| A16C G59A C76A C85G U139A | ≤ -4.2 |
| A16G C69U C85U C131G A142U | ≤ -4.2 |
| A16G G86A | -0.891 |
| A16G A21C G48C C54A G58U C93U A122G | -3.83 |
| A16C A22U G62A G74A G81C A106G G141C | ≤ -4.2 |
| A16G A24U A52C C85A C95U | ≤ -4.2 |
| A16G A20C C69G C149G | -4.02 |
| A16C U31C A37C A40C C95G G100A C114U | ≤ -4.2 |

| Variant | polymerase ribozyme fitness (log ratio) |
| --- | --- |
| A16G C149G | -3.97 |
| A16G A19G G84U A122U | -3.73 |
| A16C G83A G94A | -2.79 |
| A16G U53A U146G | -2.19 |
| A16G A30U U90G G152U | ≤ -4.2 |
| U15G C18A A23C A60G U104G C123G | ≤ -4.2 |
| U15G C43U G59A G94U | ≤ -4.2 |
| U15G C76G G86C A122U G133C A142G U148G | ≤ -4.2 |
| A16C U33C U77A | ≤ -4.2 |
| A16C U31A C32A G92C A97C A98C C103A C116U C125U | ≤ -4.2 |
| U15G A60G C87G C103G A147C | ≤ -4.2 |
| A16U A23G U148A | ≤ -4.2 |
| A16C A26U G42U A47C U55A U90G A98G | ≤ -4.2 |
| A16C A17G G58U C87A C93A | ≤ -4.2 |
| U15G C57A G86U A122G | -1.4 |
| A16G C35U C116G | -1.98 |
| A16C A40C G59A C93U A106G | -2.02 |
| A16G C36U A49C G88A C93G A107U G140U G143C | ≤ -4.2 |
| A16U A24U C27U A39U U55A C76A | ≤ -4.2 |
| U15G A26U A52G G83A U102G | ≤ -4.2 |
| A16U A64U A66U G94A C108U A150G | ≤ -4.2 |
| A16U A47G C51U C95A C114U | -3.93 |
| A16C U61A A89G C118A C149G | ≤ -4.2 |

Source: the RNAGym collection of RNA variant scans (doi:10.1073/pnas.2313332121)
